Results: article PMC5443481, “Binding of CIB1 to the αIIb tail of αIIbβ3 is required for FAK recruitment and activation in platelets” (PLoS ONE, 2017)

T1: calcium- and integrin-binding protein 1 (CIB1) (human (endogenous in platelets), UniProt Q99828 1-191)
T1 sequence (looked up): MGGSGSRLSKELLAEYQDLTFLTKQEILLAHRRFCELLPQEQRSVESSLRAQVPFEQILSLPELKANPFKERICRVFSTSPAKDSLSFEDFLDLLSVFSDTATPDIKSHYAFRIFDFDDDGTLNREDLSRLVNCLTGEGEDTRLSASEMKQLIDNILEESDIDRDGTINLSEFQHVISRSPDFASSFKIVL


Columns and labels:
[1] = target: calcium- and integrin-binding protein 1 (CIB1) (human (endogenous in platelets)) (UniProt Q99828); test: co-IP; anti-CIB1 immunoprecipitates (overnight 4°C, protein G-Sepharose) of pre-cleared 1% Nonidet P-40 lysates of washed human platelets exposed to BSA or immobilized Fg for ~45 min; blots for αIIb, FAK, c-Src; treatments: DMSO, BAPTA-AM (50 μM), cytochalasin D after adhesion
[2] = target: T1, calcium- and integrin-binding protein 1 …; test: cell-based or functional assay

| Molecule | fold reduction of co-precipitated αIIb with BAPTA-AM against vehicle [1] [fold] | c-Src activation (pY418 blot of lysates) in human platelets on immobilized Fg; inhibition by the incorporated αIIb peptide, which blocks CIB1 with αIIb (m1+m2) [2] [fold] |
| --- | --- | --- |
| integrin αIIb subunit of αIIbβ3 (receptor) | 6 | – |
| KVGFFKRNRPPLEEDDEEGE (peptide, UniProt P08514 1020-1039, looked up) [αIIb cytoplasmic domain peptide] | – | > 8 |
